According to patent US20180318451A1 (published 2018):

How the values were obtained:
[1] = biological target: T1, rhPSMA, extracellular part of human PSMA (residues 44-750) with its native N-terminus (human, UniProt Q04609 44-750, N-glycosylated (made in Schneider S2 insect cells)); test: ELISA on coated rhPSMA; G4 taken as the sixth candidate
T1 construct: range 44-750; No tag; also called wild-type rhPSMA; rhGCPII
Method: 50 μL of rhPSMA (5 μg/mL in TBS) was directly adsorbed onto the surface of a MaxiSorp 96-well plate overnight at 4° C. Similarly, ovalbumin-coated wells (10 μg/mL in PBS) were used as a negative control. After blocking with 250 μL of 2% w/v BSA for 1 h at room temperature, 50 μL from a serial Anticalin dilution in PBS was added to each well and incubated for 1 h. The plates were washed three times and bound Anticalins were detected with StrepTactin-AP as described further above. The data were analyzed using Prism 5 software (GraphPad) and absorption values (A) were fitted according to the formula ΔA=Aₘₐₓ·[Lₜₒₜ]/(KD+[Lₜₒₜ]) with the concentration of the applied lipocalin variant [Lₜₒₜ] and the dissociation constant KD.
Specific binding activities of selected Anticalins toward rhPSMA as well as apparent affinity constants were initially determined by ELISA in 96-well Maxisorp plates coated with the recombinant wild-type PSMA protein. Anticalins were applied in a dilution series and detected via the C-terminal Strep-tag II. Five of the six analyzed Anticalin candidates specifically recognized PSMA with apparent dissociation constants (K₀ values) ranging from 6 to 42 nM, for A3 and H3, respectively (FIG. 4). For comparison, binding activity towards ovalbumin, which served as a negative control, was negligible. The G4 clone was later found to bind the anti-FLAG antibody (not shown).

[2] = biological target: T2, full-length human PSMA expressed on cells (HEK293T/PSMA transfectants, LNCaP) (human, UniProt Q04609 1-750); test: immunofluorescence microscopy on fixed, permeabilized cells
T2 construct: whole, on cells; Transfected in HEK293T/17 cells, endogenous in LNCaP cells; In the Western blot it stood in SDS cell lysates; also called full length wild-type PSMA; cellular PSMA
T2 sequence (Q04609 whole entry): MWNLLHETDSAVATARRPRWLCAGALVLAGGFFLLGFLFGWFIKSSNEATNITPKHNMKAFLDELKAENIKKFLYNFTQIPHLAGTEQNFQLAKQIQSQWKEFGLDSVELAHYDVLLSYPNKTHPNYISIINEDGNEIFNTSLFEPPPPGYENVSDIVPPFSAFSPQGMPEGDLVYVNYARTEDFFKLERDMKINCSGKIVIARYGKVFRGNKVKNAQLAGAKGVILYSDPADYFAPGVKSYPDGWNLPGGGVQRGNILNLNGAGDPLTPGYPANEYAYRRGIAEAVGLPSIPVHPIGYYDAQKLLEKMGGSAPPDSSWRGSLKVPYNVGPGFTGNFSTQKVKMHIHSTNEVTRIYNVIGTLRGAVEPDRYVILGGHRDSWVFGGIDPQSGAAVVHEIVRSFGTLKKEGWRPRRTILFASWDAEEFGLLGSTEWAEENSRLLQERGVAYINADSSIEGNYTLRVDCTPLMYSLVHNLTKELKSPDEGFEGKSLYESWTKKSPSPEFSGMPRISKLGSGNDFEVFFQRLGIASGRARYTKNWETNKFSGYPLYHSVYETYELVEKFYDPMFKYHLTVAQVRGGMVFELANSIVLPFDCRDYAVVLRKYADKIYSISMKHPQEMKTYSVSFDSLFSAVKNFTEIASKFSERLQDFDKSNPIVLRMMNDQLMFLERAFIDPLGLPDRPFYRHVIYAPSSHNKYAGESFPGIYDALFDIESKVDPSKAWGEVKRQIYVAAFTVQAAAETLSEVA
Method: PSMA-positive and -negative cells grown on cover slides coated with gelatin (0.1% w/v) were washed twice with PBS, fixed with 4% w/v paraformaldehyde in PBS for 15 min, permeabilized by treatment with PBS containing 0.1% v/v Triton X-100 for 15 min, and incubated in the blocking solution (5% w/v non-fat dried milk/PBS) for 30 min at room temperature (RT). Cells were then incubated with 0.5 μM Anticalin in 5% w/v non-fat dried milk/PBS for 45 min at RT followed by incubation with a Strep-tag II specific monoclonal antibody StrepMAB-Immo (2 μg/mL in PBS/0.05% Tween-20; IBA, 2-1517) for 1 h at RT. An anti-mouse secondary antibody conjugated to Alexa Fluor 488 (5 μg/mL in PBS/0.05% Tween-20; Life Technologies, A11029) served as detection reagent and was applied for 1 h at RT. All incubation steps were interspersed by extensive washing with PBS/0.05% Tween-20. […]
For immunofluorescence microscopy, the different cell lines were fixed with paraformaldehyde on glass coverslips and permeabilized. Following a blocking step, cells were probed with the Anticalin A3A5, which was detected by a murine antibody (StrepMAB-Immo) recognizing the Strep-tag II and an Alexa Fluor 488-labeled anti-mouse secondary antibody. […] Also, when wild-type Lcn2 was used instead of the Anticalin A3A5, no fluorescent staining was detected. […]

T1 sequence (Q04609 44-750 limits assumed): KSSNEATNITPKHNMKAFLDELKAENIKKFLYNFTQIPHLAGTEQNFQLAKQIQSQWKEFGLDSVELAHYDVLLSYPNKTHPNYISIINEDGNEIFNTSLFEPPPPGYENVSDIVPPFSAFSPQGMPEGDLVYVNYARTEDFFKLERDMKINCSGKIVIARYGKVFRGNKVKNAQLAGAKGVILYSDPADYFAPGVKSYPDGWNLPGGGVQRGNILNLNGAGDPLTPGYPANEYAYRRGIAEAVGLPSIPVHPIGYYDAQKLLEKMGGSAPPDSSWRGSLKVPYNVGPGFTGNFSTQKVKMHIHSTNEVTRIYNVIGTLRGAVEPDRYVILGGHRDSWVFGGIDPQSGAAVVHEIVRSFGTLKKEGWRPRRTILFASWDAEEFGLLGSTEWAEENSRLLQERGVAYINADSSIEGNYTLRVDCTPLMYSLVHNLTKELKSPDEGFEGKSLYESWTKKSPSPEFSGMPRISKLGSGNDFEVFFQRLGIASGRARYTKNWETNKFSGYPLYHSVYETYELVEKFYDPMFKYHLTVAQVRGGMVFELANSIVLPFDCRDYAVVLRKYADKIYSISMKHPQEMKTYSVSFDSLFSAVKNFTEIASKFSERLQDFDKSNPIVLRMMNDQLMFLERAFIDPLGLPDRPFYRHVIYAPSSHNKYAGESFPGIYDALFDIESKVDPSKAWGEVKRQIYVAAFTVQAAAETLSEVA

Binder | binding result [1] | binding result [2]
Anticalin candidate G4 (designed binder, also called G4 clone; not shown: C-terminal Strep-tag II) QDSTSDLIPAPPLSKVPLQQNFQDNQFHGKWYVVGHAGNMLLREDKDPSKMVATIYELKEDKSYNVTQVDFGTKKCFYAINTFVPGSQPGEFTLGHIKSNPGMTSMLVRVVSTNYNQHAMVFFKAVLQNREGFLITLYGRTKELTSELKENFIRFSKSLGLPENHIVFPVPIDQCIDG | no binding | –
wild-type Lcn2 (other, Negative control in microscopy and flow cytometry; also called wt Lcn2; lipocalin 2) QDSTSDLIPAPPLSKVPLQQNFQDNQFQGKWYVVGLAGNAILREDKDPQKMYATIYELKEDKSYNVTSVLFRKKKCDYWIRTFVPGCQPGEFTLGNIKSYPGLTSYLVRVVSTNYNQHAMVFFKKVSQNREYFKITLYGRTKELTSELKENFIRFSKSLGLPENHIVFPVPIDQCIDG | – | no binding (tested: 0.5 µM)
